# According to patent US20240116985A1 (published 2024):
# Starred links: 1 amine or outer side, 2 acyl side, 3 side chain; linkers in the order of their positions; H or OH if unused. Positions of bridges follow the written chain, without caps; N, C: chain ends. Non-standard residues stand in square brackets, D forms with d. Primed or numbered codes have the meaning given here. PyrS2″ = (S)-3-amino-1-((pent-4-en-1-yloxy)carbonyl)pyrrolidine-3-carboxylic acid (stapling residue), C=CCCCOC(=O)N1CC[C@@](N[*:1])(C(=O)[*:2])C1; B5(16) = 2-amino-2-(pent-4-en-1-yl)hept-6-enoic acid = 2,2-bis(4-pentenyl)glycine (stitching residue), C=CCCCC(CCCC=C)(N[*:1])C(=O)[*:2]; B5(4) = 2,2-bis(4-pentenyl)glycine = 2-amino-2-(pent-4-en-1-yl)hept-6-enoic acid (stitching residue), C=CCCCC(CCCC=C)(N[*:1])C(=O)[*:2]; TfeGA = (S)-2-amino-3-((carboxymethyl)(2,2,2-trifluoroethyl)amino)propanoic acid, O=C([C@H](CN(CC(=O)[*:3])CC(F)(F)F)N[*:1])[*:2]; AcLys″ = N6-acetyl-lysine, CC(=O)NCCCC[C@H](N[*:1])C(=O)[*:2]; Phe(3-COOH) = N[C@@H](Cc1cccc(C(=O)O)c1)C(=O)O; Phe(2-Cl) = N[C@@H](Cc1ccccc1Cl)C(=O)O; Bta = N[C@@H](Cc1csc2ccccc12)C(=O)O; αAllylPro = C=CC[C@@]1(C(=O)O)CCCN1; tBuAla = CC(C)(C)C[C@H](N)C(=O)O; 3Thi = N[C@@H](Cc1ccsc1)C(=O)O
# T1: B-cat-Halo (UniProt P35222 1-781)
# T1 sequence (looked up): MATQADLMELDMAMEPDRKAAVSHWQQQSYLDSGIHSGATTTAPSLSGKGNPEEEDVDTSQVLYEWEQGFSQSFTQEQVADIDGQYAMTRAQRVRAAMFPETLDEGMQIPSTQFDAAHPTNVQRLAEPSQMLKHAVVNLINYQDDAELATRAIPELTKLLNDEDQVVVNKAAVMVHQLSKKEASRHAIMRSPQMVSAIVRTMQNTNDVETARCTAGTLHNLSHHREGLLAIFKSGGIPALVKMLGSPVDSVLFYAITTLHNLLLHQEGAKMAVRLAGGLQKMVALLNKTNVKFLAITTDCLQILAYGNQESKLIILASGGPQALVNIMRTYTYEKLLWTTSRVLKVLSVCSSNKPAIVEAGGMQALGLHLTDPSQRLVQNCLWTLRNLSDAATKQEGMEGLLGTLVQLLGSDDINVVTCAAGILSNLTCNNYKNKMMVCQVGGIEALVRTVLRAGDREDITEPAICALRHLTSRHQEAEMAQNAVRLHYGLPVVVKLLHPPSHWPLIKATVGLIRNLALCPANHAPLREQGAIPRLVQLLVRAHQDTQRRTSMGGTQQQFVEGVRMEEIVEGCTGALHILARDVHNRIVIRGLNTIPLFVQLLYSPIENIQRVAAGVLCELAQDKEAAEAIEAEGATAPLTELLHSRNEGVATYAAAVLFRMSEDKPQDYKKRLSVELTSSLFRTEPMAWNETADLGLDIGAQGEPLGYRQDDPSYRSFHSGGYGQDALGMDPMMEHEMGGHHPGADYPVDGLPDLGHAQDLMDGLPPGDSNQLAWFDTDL
# T2: beta-catenin in DLD1 TCF/LEF luciferase reporter cells (UniProt P35222 1-781)
# T2 sequence (looked up): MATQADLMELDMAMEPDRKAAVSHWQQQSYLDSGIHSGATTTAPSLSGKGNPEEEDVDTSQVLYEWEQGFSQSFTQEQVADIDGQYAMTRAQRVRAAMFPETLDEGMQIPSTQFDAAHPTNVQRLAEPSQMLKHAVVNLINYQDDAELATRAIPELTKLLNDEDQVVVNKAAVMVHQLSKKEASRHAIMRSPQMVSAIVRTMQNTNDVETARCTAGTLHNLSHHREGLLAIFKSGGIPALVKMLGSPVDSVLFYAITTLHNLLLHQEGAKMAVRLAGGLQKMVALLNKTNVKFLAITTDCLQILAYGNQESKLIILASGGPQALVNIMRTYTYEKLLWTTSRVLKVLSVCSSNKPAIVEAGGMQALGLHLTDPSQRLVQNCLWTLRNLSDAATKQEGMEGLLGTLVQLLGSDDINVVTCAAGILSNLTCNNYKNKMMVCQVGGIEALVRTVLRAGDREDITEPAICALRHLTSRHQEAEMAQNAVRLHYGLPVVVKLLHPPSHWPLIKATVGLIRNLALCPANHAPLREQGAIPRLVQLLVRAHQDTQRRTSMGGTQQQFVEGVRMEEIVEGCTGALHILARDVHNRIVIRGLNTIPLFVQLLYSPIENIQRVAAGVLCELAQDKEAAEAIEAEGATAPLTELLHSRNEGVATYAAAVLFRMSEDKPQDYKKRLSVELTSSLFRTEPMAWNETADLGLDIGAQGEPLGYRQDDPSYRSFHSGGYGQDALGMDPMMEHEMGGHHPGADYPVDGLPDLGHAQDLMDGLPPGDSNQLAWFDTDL
# T3: Bcat-Halo (beta-catenin HaloTag construct transfected into HEK293 cells) (UniProt P35222 1-781)
# T3 sequence (looked up): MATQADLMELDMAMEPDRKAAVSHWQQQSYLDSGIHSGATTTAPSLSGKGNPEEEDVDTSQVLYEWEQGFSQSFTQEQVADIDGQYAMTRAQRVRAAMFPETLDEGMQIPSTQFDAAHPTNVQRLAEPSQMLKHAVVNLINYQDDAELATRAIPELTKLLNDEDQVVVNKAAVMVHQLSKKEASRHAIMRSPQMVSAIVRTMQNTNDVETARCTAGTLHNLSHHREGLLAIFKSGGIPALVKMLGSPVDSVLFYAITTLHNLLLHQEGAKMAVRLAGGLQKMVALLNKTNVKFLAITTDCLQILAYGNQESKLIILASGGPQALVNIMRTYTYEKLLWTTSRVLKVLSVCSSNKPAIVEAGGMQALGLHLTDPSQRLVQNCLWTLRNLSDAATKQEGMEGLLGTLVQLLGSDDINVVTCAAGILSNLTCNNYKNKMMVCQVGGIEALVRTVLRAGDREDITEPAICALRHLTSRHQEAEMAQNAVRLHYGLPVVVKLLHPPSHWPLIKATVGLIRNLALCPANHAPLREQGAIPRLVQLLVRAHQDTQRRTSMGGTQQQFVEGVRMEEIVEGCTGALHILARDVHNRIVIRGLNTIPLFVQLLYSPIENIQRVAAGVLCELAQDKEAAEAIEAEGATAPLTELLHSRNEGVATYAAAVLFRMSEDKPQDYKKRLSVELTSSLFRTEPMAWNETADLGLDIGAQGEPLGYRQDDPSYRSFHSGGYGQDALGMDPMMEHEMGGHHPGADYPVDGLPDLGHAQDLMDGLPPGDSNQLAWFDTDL
# T4: beta-catenin in DLD1 TCF/LEF luciferase reporter cells (UniProt P35222 1-781)
# T4 sequence (looked up): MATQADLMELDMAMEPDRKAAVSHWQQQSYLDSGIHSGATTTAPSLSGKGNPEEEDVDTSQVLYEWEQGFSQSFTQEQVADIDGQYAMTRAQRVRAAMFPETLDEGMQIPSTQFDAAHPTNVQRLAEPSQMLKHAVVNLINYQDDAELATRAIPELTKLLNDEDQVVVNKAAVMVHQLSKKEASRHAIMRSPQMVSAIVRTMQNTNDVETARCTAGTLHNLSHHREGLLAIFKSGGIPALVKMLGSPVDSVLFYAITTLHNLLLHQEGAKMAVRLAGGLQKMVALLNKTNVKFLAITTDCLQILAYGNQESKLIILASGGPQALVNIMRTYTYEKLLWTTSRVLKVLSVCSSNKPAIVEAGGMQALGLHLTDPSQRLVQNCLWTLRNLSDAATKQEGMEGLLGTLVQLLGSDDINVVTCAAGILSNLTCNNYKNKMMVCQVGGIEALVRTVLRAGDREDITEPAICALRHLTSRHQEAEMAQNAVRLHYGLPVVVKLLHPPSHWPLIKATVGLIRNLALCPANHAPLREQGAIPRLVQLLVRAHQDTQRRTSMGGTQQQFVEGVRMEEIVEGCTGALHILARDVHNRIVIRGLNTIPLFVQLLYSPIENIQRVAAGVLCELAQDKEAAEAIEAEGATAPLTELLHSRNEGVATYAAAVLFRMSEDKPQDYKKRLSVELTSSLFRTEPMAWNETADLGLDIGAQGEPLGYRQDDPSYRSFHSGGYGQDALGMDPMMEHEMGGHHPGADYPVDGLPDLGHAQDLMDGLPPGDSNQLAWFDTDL
# T5: full-length beta-Catenin (Uniprot ID P35222) (Homo sapiens (Human), UniProt P35222 2-781)
# T5 construct: Used at 10 nM in the FP probe solution as 'full-length'; Also used here for the endogenous beta-catenin of the DLD1 TCF/LEF reporter cells (functional rows); also called bCat; B-Catenin
# T5 sequence: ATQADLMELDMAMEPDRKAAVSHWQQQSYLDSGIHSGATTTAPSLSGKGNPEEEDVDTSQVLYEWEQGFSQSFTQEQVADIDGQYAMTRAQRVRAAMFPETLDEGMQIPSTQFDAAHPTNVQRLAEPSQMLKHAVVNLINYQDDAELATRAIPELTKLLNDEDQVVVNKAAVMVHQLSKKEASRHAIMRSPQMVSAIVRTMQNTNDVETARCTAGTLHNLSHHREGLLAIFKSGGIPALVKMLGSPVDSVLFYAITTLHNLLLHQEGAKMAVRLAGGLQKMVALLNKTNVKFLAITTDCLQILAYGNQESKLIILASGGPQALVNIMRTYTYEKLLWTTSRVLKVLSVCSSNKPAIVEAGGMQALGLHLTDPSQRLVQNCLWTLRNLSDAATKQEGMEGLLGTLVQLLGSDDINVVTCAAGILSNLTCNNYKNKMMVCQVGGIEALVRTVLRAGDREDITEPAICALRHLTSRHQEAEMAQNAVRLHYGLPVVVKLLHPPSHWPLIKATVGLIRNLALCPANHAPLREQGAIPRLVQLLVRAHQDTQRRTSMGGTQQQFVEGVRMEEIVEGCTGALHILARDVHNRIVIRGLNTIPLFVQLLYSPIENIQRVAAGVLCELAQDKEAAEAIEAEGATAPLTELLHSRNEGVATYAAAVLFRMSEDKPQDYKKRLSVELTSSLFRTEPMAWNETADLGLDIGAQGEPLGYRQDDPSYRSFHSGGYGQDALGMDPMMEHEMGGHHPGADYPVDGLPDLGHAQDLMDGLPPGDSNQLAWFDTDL
# T6: Bcat-Halo (UniProt P35222 1-781, HaloTag NanoBRET 618 Ligand bound to the Halo part)
# T6 construct: Expressed in transfected HEK293 cells (NanoBRET acceptor construct); also called beta-catenin HaloTag fusion; not shown: HaloTag
# T6 sequence (looked up): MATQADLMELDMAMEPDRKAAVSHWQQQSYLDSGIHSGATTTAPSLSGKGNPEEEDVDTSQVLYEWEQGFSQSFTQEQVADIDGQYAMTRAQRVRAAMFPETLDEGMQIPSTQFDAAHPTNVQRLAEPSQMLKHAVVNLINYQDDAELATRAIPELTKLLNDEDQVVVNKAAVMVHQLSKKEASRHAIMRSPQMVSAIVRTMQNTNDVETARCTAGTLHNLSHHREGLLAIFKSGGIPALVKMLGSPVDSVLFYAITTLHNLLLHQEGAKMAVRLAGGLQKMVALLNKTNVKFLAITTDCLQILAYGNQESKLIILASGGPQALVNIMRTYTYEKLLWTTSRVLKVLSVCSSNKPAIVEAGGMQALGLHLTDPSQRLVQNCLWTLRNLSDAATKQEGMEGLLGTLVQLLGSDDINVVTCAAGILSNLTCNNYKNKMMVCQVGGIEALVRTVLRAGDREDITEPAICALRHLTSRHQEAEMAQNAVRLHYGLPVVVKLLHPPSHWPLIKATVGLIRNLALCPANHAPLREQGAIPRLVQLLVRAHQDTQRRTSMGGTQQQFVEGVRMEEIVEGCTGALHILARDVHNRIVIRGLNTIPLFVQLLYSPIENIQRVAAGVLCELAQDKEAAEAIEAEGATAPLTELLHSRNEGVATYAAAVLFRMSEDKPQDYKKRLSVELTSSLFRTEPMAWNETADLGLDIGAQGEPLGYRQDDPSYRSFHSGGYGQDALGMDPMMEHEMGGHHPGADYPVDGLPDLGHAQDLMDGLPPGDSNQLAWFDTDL
# Legend:
# B-cat-Halo = molecular target: T1, B-cat-Halo; assay: cell-based or functional assay
# [1] = molecular target: T2, beta-catenin in DLD1 TCF/LEF luciferase …; assay: cell-based or functional assay
# [2] = molecular target: T3, Bcat-Halo (beta-catenin HaloTag …); assay: cell-based or functional assay
# [3] = molecular target: T4, beta-catenin in DLD1 TCF/LEF luciferase …; assay: cell-based or functional assay; remark: listed apart in the source
# [4] = molecular target: T5, full-length beta-Catenin (Uniprot ID …); assay: fluorescence polarization competition; 10 nM full-length beta-catenin + 10 nM 5FAM-TCF4 10-53 as competitor probe
# Experimental: The plate was incubated protected from light for 60 minutes at 20° C. prior to read. Reads were performed on a CLARIOstar plate reader (BMG Labtech) in duplicate, and data were fitted to a 1:1 binding model with hill slope using an in-house script. All provided concentrations are final concentrations.
# Bcat-Halo = molecular target: T6, Bcat-Halo; assay: NanoBRET Abs IC50, HEK293 cells transfected with Bcat-Halo and TCF4-Luc (competitor: TCF4-Luc); cellular assay
binder,measurement,setting,value
"Ac-[αAllylPro]D[tBuAla][B5(4)]D[TfeGA]AAFL[PyrS2″][3Thi][Bta][AcLys″]-NH2 (staple 1-4, 4-11) [I-1709]",NanoBRET Abs IC50,B-cat-Halo,6.2 µM
same,DLD1 4% Abs IC50,[1],3.9 µM
"Ac-[αAllylPro]D[tBuAla][B5(4)]D[Phe(3-COOH)]AAFL[PyrS2″][3Thi][Bta]Q-NH2 (staple 1-4, 4-11) [I-1462]",NanoBRET Abs IC50,[2],2.3 µM
same,DLD1 4% Abs IC50,[3],2.7 µM
"Ac-[αAllylPro]DF[B5(16)]DDAAFN[PyrS2″][Phe(2-Cl)][Bta]Q-NH2 (staple 1-4, 4-11, Stapled (stitched) peptide composition) [I-1041]",EC50,[4],0.008 µM
same,IC50,Bcat-Halo,> 20 µM
"Ac-[αAllylPro]DF[B5(16)]DDAAFS[PyrS2″][Phe(2-Cl)][Bta]Q-NH2 (staple 1-4, 4-11, Stapled (stitched) peptide composition) [I-1045]",EC50,[4],0.005 µM
same,IC50,Bcat-Halo,23.9 µM
"Ac-[αAllylPro]DF[B5(4)]DDAAFN[PyrS2″][Phe(2-Cl)][Bta]S-NH2 (staple 1-4, 4-11, Stapled (stitched) peptide composition) [I-1047]",EC50,[4],0.005 µM
same,IC50,Bcat-Halo,28.4 µM
